Experiment in all cases: purified protein
Format in all cases: biochemical, Asarum sieboldii
Conditions in all cases: 0.5 mM NADPH, 50 mM Tris-HCl pH 7.5, 2 mM DTT, 30 °C

Substrate in data set [1]: COc1cc(/C=C/C=O)cc(OC)c1O
Substrate in data set [2]: COc1cc(/C=C/C=O)ccc1O
Substrate in data set [3]: O=C/C=C/c1ccc(O)cc1

Here are results for one protein from article PMC6321292, “Comparative Transcriptomics Analysis for Gene Mining and Identification of a Cinnamyl Alcohol Dehydrogenase Involved in Methyleugenol Biosynthesis from Asarum sieboldii Miq” (Molecules, 2018).

B1: AsCAD5 (Asarum sieboldii) (protein)
chain: MSNQSGTDNCLGWAARDPSGILSPHSFSRRSIGSDDVSLKITHCGVCYADVAWTRNKVGDSMYPLVPGHEIVGIVQEVGSDVNRFKIGDHVGVGTYVNSCRECVYCKDKLEVVCQKGPTLTFNSLDVDGTITKGGYSSHIVVNERYCYRIPDGYPLVSAAPLLCAGITVYAPMMRHKMNQPGKSLGVIGLGGLGHMAVKFGKAFGLNVTVFSTSESKKEEALKLLGADRFVISSDKKQMEGVMKSLDFIIDTASGDHPFDPYMALLKTTGILVLVGFPSEVKFNPGSLILGLRTLSGSVTGGTKDTQEMLEFCAANKIYPEIELINIEYINEALERLINREVKYRFVIDIENSLK
notes: full ORF 1068 bp (about 355 residues), pMAL-C5X MBP fusion in E. coli Rosetta (DE3), MBP tag removed by Factor Xa, ca. 40 kDa
As to B1, in data set [1], the Km is recorded as 35.02 ± 8.043 µM, the Vmax was determined as 26.9 µmol/min/mg, the kcat came to 291 s⁻¹ and the kcat/Km was 8.3e+06 M⁻¹ s⁻¹. Besides, in data set [2], the Km turned out to be 27.32 ± 6.186 µM, the maximal velocity (Vmax) is 20.5 µmol/min/mg, the kcat was 222 s⁻¹ and the kcat/Km stood at 8.12e+06 M⁻¹ s⁻¹. Besides, in data set [3], the Km turned out to be 45.52 ± 8.888 µM, the Vmax is 23 µmol/min/mg, the turnover number (kcat) came out at 249 s⁻¹ and the kcat/Km worked out at 5.47e+06 M⁻¹ s⁻¹.

As usually defined, the Km is the substrate concentration at which the rate is half of its maximum. One may read the Vmax as the rate approached at saturating substrate. The kcat is the maximal rate divided by the concentration of active sites. The kcat/Km is the turnover number divided by the Michaelis constant.
